Assay results reported in patent publication US20230374471A1, “SELF-ASSEMBLING URICASE FUSION PEPTIDES” (University of Florida Research Foundation, Incorporated, priority 2020, published 2023).

B4: Ac-QQKPKPKPKQQ-Am [mCATCH(+)] (peptide)
peptide: Ac-QQKPKPKPKQQ-NH2
notes: Mutant of CATCH(+) with proline in place of the phenylalanine residues

Key:
[1] = literature value (ref. 7); cited from earlier work
[2] = Circular dichroism: concentration-dependent transition from random coil to β-sheet; type: physicochemical; conditions: equimolar mixture of CATCH peptides in 1x PBS, ellipticity at 212 nm
Experimental: Circular Dichroism. Circular Dichroism was performed on an AVIV 202 spectrometer. Peptides were prepared in 1x PBS at 500 μM, unless stated otherwise. Samples were run 3 times, averaged, and converted to mean residue ellipticity. All data reported was for dynode values <500 V.
(§1) Nanofiber preparation. Stock solutions of CATCH(−) and CATCH(+) were prepared by dissolving lyophilized peptides in 1x PBS to a final concentration of 500 μM. Peptide concentration was confirmed using Phe absorbance (λ=260 nm). CATCH peptides were then mixed at a 1:1 (v/v) ratio and incubated overnight for formation of nanofibers, unless stated otherwise.

[3] = Protein incorporation and retention in macroscopic hydrogels under excess PBS; type: physicochemical
Experimental: Macroscopic Hydrogel Formation. A 12 mM stock solution of CATCH(−) was prepared by dissolving dry peptide in 1x PBS and adjusting the pH to ˜7.6 with ammonium bicarbonate (Fisher). A 12 mM stock solution of CATCH(+) was prepared by dissolving dry peptide in 1X PBS and adjusting the pH to ˜7.2 with hydrochloric acid (0.5 N Fisher). CATCH peptide stock solutions were combined at a 1:1 (v/v) ratio in a 0.2 mL glass vial (Thermo), and the vial was gently swirled for 2 min until the hydrogel formed. The hydrogel was stained with red food coloring to aid visualization. Hydrogel images were recorded using a digital still camera.
Protein Incorporation into Macroscopic Hydrogels. […] Immediately after hydrogel formation, fluorescence was visualized by placing the glass vials on a SafeImager 2.0 transilluminator (Invitrogen) and recording images with a digital still camera. […] At various time points, fluorescence in the buffer supernatant was visualized by placing the glass vials on a SafeImager 2.0 transilluminator (Invitrogen) and recording images with a digital still camera. At the end-point, buffer supernatant was carefully removed by decanting and fluorescence was visualized by placing the glass vials on a SafeImager 2.0 transilluminator (Invitrogen) and recording images with a digital still camera.

[4] = biological target: T1, Ac-EQEPEPEPEQE-Am [mCATCH(-)]; assay: ThT fluorimetry, equimolar mixture
T1 construct: Mutant of CATCH(-) with proline in place of the phenylalanine residues
T1 peptide: Ac-EQEPEPEPEQE-NH2
Experimental: (§2) Thioflavin T (ThT) Assay. A ThT stock solution containing 0.8 mg/mL of thioflavin T (Acros) in 1x phosphate-buffered saline (PBS) (137 mM NaCl, 2.7 mM KCl, 10 mM Na₂HPO₄ and 1.8 mM KH₂PO₄, pH 7.4) was filtered through a 0.22 μm syringe filter (Millex), and further diluted 1:10 with 1x PBS to create a working solution. Peptide samples were mixed with the ThT working solution at a 1:10 (v/v) ratio, added to a black 96-well plate (Corning), and analyzed with a Molecular Devices SpectraMax M3 spectrophotometer (excitation 450, emission 482 nm). All samples were run in triplicate, with the mean and standard deviation of these samples reported.
as §1

[5] = biological target: the molecule itself; assay: ThT fluorimetry, TEM, CD and fluorescence microscopy of the peptide alone
[6] = Dissolution of monosodium urate (MSU) crystals in vitro; type: biochemical; conditions: 12.6 ug soluble CATCH-U, 0.5 mg MSU crystals, 2250 U/mL catalase, 96 hours, density at 293 nm
Experimental: The enzymatic activity of CATCH-U in soluble and gel form was evaluated by measuring uric acid depletion over time via absorbance at 293 nm and 37° C. for varying concentrations of uric acid substrate. Hydrogels were left to incubate at 37° C. for 4 days with substrate removed and replenished daily to determine if the gels remain active over this timeframe. Gels were also incubated with monosodium urate (MSU) crystals.
Soluble CATCH-U activity in dissolving MSU crystals was assessed by incubating 12.6 ug soluble CATCH-U with 0.5 mg MSU crystals and 2250 U/mL catalase for 96 hours (FIG. 60). MSU crystal density was determined at 293 nm compared to a standard curve of crystals. […] Brightfield images, scale bar=[…].
The hydrogel creates a concentration gradient sufficient to dissolve crystallized uric acid in the form of monosodium urate (MSU) crystals (FIGS. 58 and 61). […] MSU crystals appear as white flakes while the background is black. The gel is the white mass on the right. […] A similar experiment was performed with lOuL hydrogels comprising 3.17 ug CATCH-U and incubated with 1 g/L MSU crystals for 24 hours (FIG. 61). […] Polarized, phase contrast images, scale bar=500 μm.

[7] = biological target: B4; assay: ThT fluorimetry, equimolar mixture
Experimental: as §2, §1

[8] = biological target: T1, Ac-EQEPEPEPEQE-Am [mCATCH(-)]; assay: ThT fluorimetry, kinetic, equimolar mixture

For “Ac-QQKFQFQFEQQ-Am (Ac-QQKFQFQFEQQ-NH2) [Q11]”, the “Concentration at which the peptide self-assembles into β-sheet nanofibers” value [1] is listed as about 10 µM.

For “CATCH peptides: equimolar mixture of CATCH(+) and CATCH(−) peptides that co-assemble into β-sheet nanofibers (Ac-QQKFKFKFKQQ-NH2; not fully specified)”, the β-sheet fibrillization concentration [2] was “about 300 μM”.

For “CATCH(−)GFP: recombinant fusion of CATCH(−) and superfolder green fluorescent protein (GFP)”, the “Fluorescence of hydrogel after incubation under excess 1x PBS” value ([3]; CATCH hydrogels formed in presence of the fusion protein, 48 h) was “retained their fluorescence” and the “GFP in the buffer layer over the hydrogels” value ([3]; excess 1x PBS, up to 48 h) was “no GFP was detected”.

B1: Ac-QQKFKFKFKQQ-Am [CATCH(+)] (peptide)
peptide: Ac-QQKFKFKFKQQ-NH2
notes: Synthetic designed cationic variant of Q11, made by Fmoc solid-phase synthesis; also called CATCH (4+); positive peptide
B1: no binding [4]; no binding [5].

B2: CATCH-U: uricase fused to a CATCH peptide, expressed in E. coli, purified via nickel affinity chromatography; probably SEQ ID NO: 9 (FIG. 59) (protein)
chain: MAEQEFEFEFEQEGSGGGSGGSGGGGSGGSGEFMSAVKAARYGKDNVRVYKVHKDEKTGVQTVYEMTVCVLLEGEIETSYTKADNSVIVATDSIKNTIYITAKQNPVTPPELFGSILGTHFIEKYNHIHAAHVNIVCHRWTRMDIDGKPHPHSFIRDSEEKRNVQVDVVEGKGIDIKSSLSGLTVLKSTNSQFWGFLRDEYTTLKETWDRILSTDVDATWQWKNFSGLQEVRSHVPKFDATWATAREVTLKTFAEDNSASVQATMYKMAEQILARQQLIETVEYSLPNKHYFEIDLSWHKGLQNTGKNAEVFAPQSDPNGLIKCTVGRSSLKSKLLEHHHHHH
For B2, the “MSU crystal amount over time” value [6] was “steady and significant decrease”.

B3: Ac-EQEFEFEFEQE-Am [CATCH(-)] (peptide)
peptide: Ac-EQEFEFEFEQE-NH2
notes: Synthetic designed anionic variant of Q11, made by Fmoc solid-phase synthesis; also called CATCH (6-); negative peptide
B3: no binding [7]; no binding [5].

B4: no binding [8].
